Test results published in patent publication US10213515B2, “Glycopeptide for contrast agent targeting cancer cells and contrast agent kit containing the same” (priority 2015, dated 2019).

Test system: HT-29 cells
Experiment: Cytotoxicity depending on the concentration of RR-S-Ac3ManNAz
Type: cell-based, human
Details: FIG. 4B

CC(=O)N[C@@H](CCCCN)C(=O)NCC(=O)N[C@@H](CCCNC(=N)N)C(=O)N[C@@H](CCCNC(=N)N)C(=O)Nc1ccc(COC(=O)OC[C@H]2OC(OC(C)=O)[C@@H](NC(=O)CN=[N+]=[N-])[C@@H](OC(C)=O)[C@@H]2OC(C)=O)cc1 (stereo partly shown) [RR-S-Ac3ManNAz]
concentration up to which cytotoxicity was not observed: up to 20 μM
